Reference: patent US20140178394A1

Biological target: HLA-A*0201 HLA class I MHC monomer (iTopia Epitope Discovery System, coated on plate) (human)
Assay: overall rank from iTopia EDS and CEM T2 assays on HLA-A*0201

**Q.** How did the RANK F-Score turn out when SLLMWITQV (modifications not checked) [reference peptide 513 (NY-ESO-1), …] was run?
**A.** 2
